One experiment concerns P. falciparum 3D7. Description: Recovery of treated parasite culture after peptide removal. It counts as cell-based, Plasmodium falciparum. The settings on record: 50 μM (~EC50), removed at 4 h, then grown 24 h.
In a further experiment the test system is P. falciparum. The settings on record: asexual stage P. falciparum; ref [30], [31]; cited from earlier work.
For experiment [1], the target named is recombinant PfClpQ, mature region (38-170 aa) (P. falciparum). Description: SPR. Background: SPR reads the build-up and loss of mass on a sensor chip optically.

Ends that are not written are not given here. A value given as a limit tells only on which side of the number the result lay.

In the case of FIKQYDLKKYII [FI-peptide], in the experiment on P. falciparum 3D7, the “growth inhibition after peptide removal at 4 h” value was under 20%.

With `CCN(CC)CCCC(C)Nc1ccnc2cc(Cl)ccc12` (centres unmarked) [chloroquine], the “apoptosis-like features (in words)” value in the experiment with P. falciparum is “loss of mitochondrial membrane potential (Δψm), activation of caspase-like cytseine proteases and nuclear DNA fragmentation”.

B1: FI-peptide, 12-amino-acid synthetic peptide corresponding to the C terminus of PfClpY (peptide)
peptide: FIKQYDLKKYII
By Kd is commonly meant a measure of binding affinity in units of concentration. By koff is commonly meant the rate constant with which the complex falls apart. The term kon denotes a measure of how fast the partners come together. For B1, in experiment [1], the Kd is 62.4 µM, the koff is 0.00976 s⁻¹ and the kon was 157 M⁻¹ s⁻¹.

The values above are taken from publication PMC3223699 (Cell Death & Disease, 2011).
